Data taken from publication PMC6113214, “Outer membrane lipoprotein RlpA is a novel periplasmic interaction partner of the cell division protein FtsK in Escherichia coli” (Scientific Reports, 2018).

Biological target: T1, FtsZ (E. coli, UniProt P0A9A6 1-383)
T1 construct: FtsZ, tubulin homologue of the Z-ring; the species is told only of the protein in general; also called purified FtsZ
T1 sequence (looked up): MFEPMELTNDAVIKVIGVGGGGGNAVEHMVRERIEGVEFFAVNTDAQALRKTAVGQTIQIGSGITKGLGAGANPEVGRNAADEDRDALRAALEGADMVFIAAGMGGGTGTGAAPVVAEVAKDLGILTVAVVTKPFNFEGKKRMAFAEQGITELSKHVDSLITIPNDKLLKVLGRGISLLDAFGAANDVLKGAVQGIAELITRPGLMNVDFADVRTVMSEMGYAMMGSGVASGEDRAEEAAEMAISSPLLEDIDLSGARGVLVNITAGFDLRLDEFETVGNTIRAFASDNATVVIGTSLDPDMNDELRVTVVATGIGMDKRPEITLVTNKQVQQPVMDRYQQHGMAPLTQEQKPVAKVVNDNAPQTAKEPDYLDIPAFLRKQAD
Test: pull-down; His10-FtsKN bound to 100 uL Ni2+ IMAC resin (bait); 320 ug purified FLAG-RlpA or 250 ug purified FtsZ (prey); 4 C overnight; three washes in 20 mM Tris-HCl pH 7.0, 100 mM NaCl, 25 mM imidazole, 0.05% LDAO; elution with 1 M imidazole; Western blot; empty resin as control
Conditions: both partners purified

B1: His10-FtsKN(220), N-terminal domain of the cell division protein FtsK (amino acids 1-220) (domain or fragment, E. coli, UniProt P46889 1-220, looked up)
chain: MSQEYIEDKEVTLTKLSSGRRLLEALLILIVLFAVWLMAALLSFNPSDPSWSQTAWHEPIHNLGGMPGAWLADTLFFIFGVMAYTIPVIIVGGCWFAWRHQSSDEYIDYFAVSLRIIGVLALILTSCGLAAINADDIWYFASGGVIGSLLSTTLQPLLHSSGGTIALLCVWAAGLTLFTGWSWVTIAEKLGGWILNILTFASNRTRRDDTWVDEDEYEDD
notes: FtsK of E. coli, N-terminal membrane anchor domain, amino acids 1-220 of the 1329 amino acid protein; also called WT FtsKN; not shown: His10, N-terminal, kept
**Q.** Does B1 bind?
**A.** Result: binds
